The text below walks through data of PMC9274004, “Deciphering the Molecular Interaction Between the Adhesion G Protein-Coupled Receptor ADGRV1 and its PDZ-Containing Regulator PDZD7” (Frontiers in Molecular Biosciences, 2022).

For one experiment, the system named is harmonin supramodule. Particulars: for protocadherin-15; ref Michel et al., 2020; cited from earlier work. The source says: These folded extensions modulate the affinity of associated PDZ domains for their partners and promote the formation of domain assembly. In harmonin, this extension folds as a hairpin followed by a short α-helix mediating the formation of a heterotopic supramodule between the first PDZ and the upstream Harmonin Homology Domain (HHD) and forming direct contacts with residues upstream of the partner’s PBM ([Yan et al., 2010]) (PDB e ...

Experiment [1] has as its target T1, PDZD7 PDZ tandem (P1P2 construct; A81 to G313) (mouse).
T1 sequence (E9Q9W7 81-313, looked up): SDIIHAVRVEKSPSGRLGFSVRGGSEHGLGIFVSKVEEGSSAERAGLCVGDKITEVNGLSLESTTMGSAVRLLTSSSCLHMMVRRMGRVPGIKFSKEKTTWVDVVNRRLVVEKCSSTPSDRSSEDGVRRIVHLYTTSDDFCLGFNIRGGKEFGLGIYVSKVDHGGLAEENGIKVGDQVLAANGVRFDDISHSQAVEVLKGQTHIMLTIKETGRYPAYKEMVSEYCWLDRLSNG
The experiment in a line: other fluorescence titration; tryptophan fluorescence (excitation 295 nm) of P1P2 at 2 µM in Phosphate Buffer pH 6.6 (50 mM) on progressive addition of ADGRV1pbm peptide or the cytoplasmic domain; apparent Kd.

In experiment [2] the target is T2, PDZD7 first PDZ domain with its C-terminal extension (PDZ1ext construct; A81 to E192) (mouse).
T2 sequence (E9Q9W7 81-192, looked up): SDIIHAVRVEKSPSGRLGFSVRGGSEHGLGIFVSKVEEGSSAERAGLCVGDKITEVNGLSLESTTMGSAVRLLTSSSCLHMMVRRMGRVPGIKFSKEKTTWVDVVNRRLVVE
The experiment in a line: NMR titration; chemical shift perturbations of PDZ1ext or N-PDZ1ext with the whole ADGRV1 cytoplasmic domain or the PBM peptide; apparent Kd, mean over at least ten shifting peaks; buffer not given for these titrations.

Experiment [3] concerns the target PDZD7 N-terminus with PDZ1 and its extension (N-PDZ1ext construct; M1-E192) (mouse) (UniProt E9Q9W7). The experiment is described as above.
The target in the next experiment is T3, PDZD7 PDZ1ext (81-192) (Mus musculus, UniProt E9Q9W7).
T3 construct: PDZ1 (81-167), PDZ1ext (81-192); GST (followed by TEV site) (N, cleaved yes); made in house; host or cells: E. coli BL21 DE3
T3 sequence (E9Q9W7 81-192): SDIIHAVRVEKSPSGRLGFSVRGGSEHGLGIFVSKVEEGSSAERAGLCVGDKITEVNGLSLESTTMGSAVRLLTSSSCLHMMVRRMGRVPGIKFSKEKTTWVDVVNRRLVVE
The experiment in a line: NMR titration of PDZ1ext with ADGRV1 ligands. The experiment is classed as binding, murine. Particulars: NMR titration, 25°C; apparent Kd, SD over at least ten shifting peaks; ligand whole cytoplasmic domain; read-out: Kd (Cyto). Here is the method: All experiments were recorded at 25°C on a Bruker 800 MHz spectrometer equipped with a triple resonance ^1H{^13C/^15N} cryoprobe. The ^1H, ^15 N and ^13C backbone resonances assignment of PDZ1ext was carried out using 3D HNCA, HNCACB, HNCO, HNCOCA experiments (Tris HCl buffer adjusted to pH 6). The 2D ^1H-^15N HSQC spectra used to compare PDZ1, PDZ1ext, PDZ2 and PDZ2ext were recorded in Tris HCl pH 7.5 (50 mM). The 2D ^1H-^15N HSQC spectra used to compare PDZ1ext, PDZ2ext and P1P2 were recorded in Phosphate Buffer pH 6.5 (50 mM). Titration experiments of PDZ1 (WT), PDZ1ext (WT) and PDZ1ext (G103R) against ADGRV1pbm peptide were performed in Tris HCl pH 7.5 (50 mM). Averaged Chemical Shifts Perturbations (CSP) were calculated as: Δδavg = ((Δδ(^1H))^2+(Δδ(^15N)*0.159)^2)^½. […]
We monitored the interaction between PDZD7 constructs and a peptide (ADGRV1pbm) corresponding to the last 13 residues of ADGRV1, encompassing its PBM (sequence VELRRIPIADTHL-COOH; PBM underlined). We measured apparent Kd values of our constructs towards ADGRV1pbm using several biophysical methods (NMR, fluorescence, MicroScale Thermophoresis (MST)) (Table 1; Supplementary Figure S3–S5). […]

The target in another experiment is T4, PDZD7 N-PDZ1ext (Mus musculus, UniProt E9Q9W7).
T4 construct: including the N-terminus of the protein (N-PDZ1ext construct; M1-E192); GST (followed by TEV site) (N, cleaved yes); made in house; host or cells: E. coli BL21 DE3
T4 sequence (E9Q9W7 1-192): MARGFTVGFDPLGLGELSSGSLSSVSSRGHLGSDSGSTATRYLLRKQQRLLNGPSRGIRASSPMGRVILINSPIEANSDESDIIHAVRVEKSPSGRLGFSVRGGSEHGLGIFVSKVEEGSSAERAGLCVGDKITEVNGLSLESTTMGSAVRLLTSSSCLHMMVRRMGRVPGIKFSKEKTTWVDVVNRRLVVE
The experiment in a line: NMR titration of N-PDZ1ext with ADGRV1 ligands. The format is binding, murine. The method, then: All experiments were recorded at 25°C on a Bruker 800 MHz spectrometer equipped with a triple resonance ^1H{^13C/^15N} cryoprobe. The ^1H, ^15 N and ^13C backbone resonances assignment of PDZ1ext was carried out using 3D HNCA, HNCACB, HNCO, HNCOCA experiments (Tris HCl buffer adjusted to pH 6). The 2D ^1H-^15N HSQC spectra used to compare PDZ1, PDZ1ext, PDZ2 and PDZ2ext were recorded in Tris HCl pH 7.5 (50 mM). The 2D ^1H-^15N HSQC spectra used to compare PDZ1ext, PDZ2ext and P1P2 were recorded in Phosphate Buffer pH 6.5 (50 mM). Titration experiments of PDZ1 (WT), PDZ1ext (WT) and PDZ1ext (G103R) against ADGRV1pbm peptide were performed in Tris HCl pH 7.5 (50 mM). Averaged Chemical Shifts Perturbations (CSP) were calculated as: Δδavg = ((Δδ(^1H))^2+(Δδ(^15N)*0.159)^2)^½. For the determination of dissociation constants (Kd) of each peptide/PDZ interaction, averaged CSP δavg was plotted as a function of the molar ratio (peptide/PDZ) for several peaks and fitted using nonlinear regression and assuming a simple complex formation model.
The P1P2 tandem of PDZD7 is preceded by 80 residues with no predicted secondary or tertiary structure, but which could contribute to the interaction with ADGRV1. […] We first aimed at identifying potential secondary structures in both PDZD7 N-terminal region and ADGRV1 cytoplasmic domain. To this end, we produced both an extended PDZ1ext construct, including the N-terminus of the protein (N-PDZ1ext construct; M1-E192) and the whole ADGRV1 cytoplasmic domain of 152 residues.
On the overlay of PDZ1ext and N-PDZ1ext HSQC spectra, there is no significant chemical shift changes on PDZ1ext due to the presence of the N-terminal region (CSPs <0.04 ppm). […] We used the entire cytoplasmic domain of ADGRV1 as partner of PDZD7 in NMR and fluorescence titrations experiments. […] Finally, we measured Kd values in the few micromolar range between the tandem P1P2 and the whole cytoplasmic domain and the last 13 residues of ADGRV1 by fluorescence experiments.

In experiment [4] the target is T2, PDZD7 first PDZ domain with its C-terminal extension (PDZ1ext construct; A81 to E192) (mouse). The experiment in a line: NMR titration; 1H-15N HSQC chemical shift perturbations of the labelled PDZ construct on addition of ADGRV1pbm peptide; Tris HCl pH 7.5 (50 mM), 25°C; apparent Kd, mean over at least 10 shifting peaks.
The target in experiment [5] is PDZD7 PDZ1ext G103R (mouse). The experiment is described as above.
Experiment [6] addresses T5, PDZD7 first PDZ domain (PDZ1 construct; A81 to G167) (mouse, Natural entry residue kept at 81: the paper prints A81 but the entry has Ser, so the Ala is probably a cloning junction or a misprint. The GST tag was removed by TEV; a short N-terminal scar is possib).
T5 chain: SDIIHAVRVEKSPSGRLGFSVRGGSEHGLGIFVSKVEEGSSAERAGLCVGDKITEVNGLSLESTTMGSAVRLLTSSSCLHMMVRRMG
The experiment is described as above. Particulars: both partners purified.

Experiment [7] concerns the target PDZD7 PDZ tandem P1P2 G103R (mouse). The experiment in a line: other fluorescence titration; tryptophan fluorescence (excitation 295 nm) of P1P2 at 2 µM in Phosphate Buffer pH 6.6 (50 mM) on progressive addition of ADGRV1pbm peptide or the cytoplasmic domain; apparent Kd.
Experiment [8] concerns the target T6, PDZD7 second PDZ domain with its C-terminal extension (PDZ2ext construct; G206 to G313) (mouse, UniProt E9Q9W7-1 206-313).
T6 construct: also called PDZ2ext WT; source: E. coli BL21 DE3, purified (GSTrap, on-column TEV cleavage, SEC); not shown: GST, N-terminal, cleaved
T6 sequence (looked up): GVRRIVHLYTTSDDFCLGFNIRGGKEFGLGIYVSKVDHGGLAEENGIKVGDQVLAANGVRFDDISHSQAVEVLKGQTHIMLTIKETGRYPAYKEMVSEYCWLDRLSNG
The experiment in a line: other fluorescence titration; tryptophan fluorescence (excitation 295 nm) of PDZ2ext at 5 µM in Tris HCl pH 7.5 (50 mM) on progressive addition of ADGRV1pbm peptide; apparent Kd. Particulars: both partners purified.

Experiment [9] concerns the target T7, PDZD7 second PDZ domain (PDZ2 construct; G206 to G292) (mouse, UniProt E9Q9W7-1 206-292).
T7 construct: PDZD7, mouse, long isoform (Uniprot E9Q9W7-1), residues 206-292; source: E. coli BL21 DE3, purified (GSTrap, on-column TEV cleavage, SEC); not shown: GST, N-terminal, cleaved
T7 sequence (looked up): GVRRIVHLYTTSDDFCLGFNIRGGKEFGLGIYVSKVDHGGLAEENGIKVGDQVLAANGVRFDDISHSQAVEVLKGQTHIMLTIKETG
The experiment in a line: MST; label-free; PDZ2 at 140 μM in MES pH6 (50 mM) mixed 1:1 with a serial dilution of ADGRV1pbm peptide; apparent Kd. The settings on record: both partners purified.

As to “protocadherin-15: partner of harmonin supramodule”, in the experiment on harmonin supramodule, the “increased affinity of harmonin supramodule vs isolated PDZ” value is on record as about 10 fold.

B1: ADGRV1 whole cytoplasmic domain (domain or fragment)
chain: HNQTCCPMKASYTVEMNGHPGPSTAFFTPGSGIPPAGEINKSTQNLINAMEEVPSDWERSSFQQTSQASPDLKTSPQNGASFPSSGGYGPGSLIADEESQEFDDLIFALKTGAGLSVSDNESGQGSQEGGTLTDSQIVELRRIPIADTHL
For the molecule B1, the Kd worked out at 8.1 µM in experiment [1], 41 µM in experiment [2] and 241 µM in [3].

B2: ADGRV1 whole cytoplasmic domain: whole ADGRV1 cytoplasmic domain of 152 residues, murine long isoform (CCDS36737; 6149-6298) (protein)
chain: HNQTCCPMKASYTVEMNGHPGPSTAFFTPGSGIPPAGEINKSTQNLINAMEEVPSDWERSSFQQTSQASPDLKTSPQNGASFPSSGGYGPGSLIADEESQEFDDLIFALKTGAGLSVSDNESGQGSQEGGTLTDSQIVELRRIPIADTHL
modifications: left off: Histidine tag, N-terminal, cleaved
B2: the Kd with PDZD7 PDZ1ext (81-192) is 41 ± 14 µM; with PDZD7 N-PDZ1ext (NMR titration, 25°C, SD over at least ten shifting peaks, ligand whole cytoplasmic domain, read-out: Kd (Cyto)), 241 ± 115 µM. For the same molecule, the decrease in affinity with PDZD7 N-PDZ1ext (due to the long unfolded N-terminus region, N-PDZ1ext vs PDZ1ext) is given as 6 fold.

B3: ADGRV1pbm peptide (last 13 residues of ADGRV1, with its PDZ binding motif) (peptide)
peptide: VELRRIPIADTHL
notes: ADGRV1, last 13 residues, free C-terminal carboxylate as printed (-COOH); The other ADGRV1 constructs are murine
Take B3: the Kd worked out at 47 µM in [4]; 1190 µM in [5]; 1310 µM in experiment [6]; 1.6 µM in [1]; 1.9 µM in [7]; 3.1 µM in [8]. Besides, in [9], the Kd is 313 µM.
